Source: publication PMC4457421

Target: Bacteriorhodopsin from Halobium salinarum expressed in E. coli (Halobium salinarum) (UniProt P02945)
Assay: crystal structure; in meso nanovolume crystallisation in monooleoyl-based lipid mesophase, protein 20 mg/ml, 1.5M Na/K-Pi pH 5.6, 22°C; space group C2, three monomers in the asymmetric unit; 1.9 Å

stoichiometry N: 3
Substance: Bacteriorhodopsin from Halobium salinarum expressed in E. coli (from UniProt P02945 14-262) (natural protein)
